According to PMC10279700, “Structural insights into regulation of the PEAK3 pseudokinase scaffold by 14-3-3” (Nature Communications, 2023):

B1: FLAG-tagged full-length human PEAK3 (PEAK3-1xFLAG) (natural protein, UniProt Q6ZS72 1-473, looked up)
chain: MSSPEPPTEPPEPDNPTWSTQPTYSNLGQIRAHLLPSKACRLRTPGSLSTNPEPLPPPLPKKILTRTQSLPTRRTLHPSSIQVQPPRRPFLGSHSVDKSQAAVGPACLPAELTFGPADAPLGLSLRDLHSPEAVHTALAARQLQGLRTIYARLRARLMGGHPGPCHPGHSFRLLDSSPCAESGDALYYRVVRAHEDAWHILVAKVPKPGADVPHPWGLELQASLSPHFNLQGLCGLVPEGTLPGAPWRGAVALAAEVPERTVAQWLAEACTQPPEEFVWAVALLLLQLSAALKFLEAWGAALVELRPENLLLVAPRGCATTGPPRLLLTDFGRVCLQPPGPPGSPGPHAPQLGSLLRALLSLAAPSTTPLAAGLELLAAQLTRLRPSASRTRGALQALLWGPGPELRGRGAPLGPWLRALGPWLRVRRGLLVLRLAERAAGGEAPSLEDWLCCEYLAEATESSMGQALALLWD
modifications: phosphoserine at 69
notes: PEAK3 pseudokinase (C19orf35), human, gene synthesized by GenScript; residues modelled: chain A 128-406, 419-473; chain B 130-406, 415-472; N-terminal peptides chain E 66-73 and chain P 66-72; Purifies as a homodimer, alone or in complex with an endogenous 14-3-3 heterodimer; also called C19orf35; PEAK3 homodimer; source: Expi293F, transfected, purified (G1 Flag resin, FLAG peptide elution, …)

Assays:
[1] = molecular target: FLAG-tagged PEAK3 R147A (human) (UniProt Q6ZS72); assay: co-IP; FLAG-tagged PEAK3 variants transiently expressed in HEK293; anti-FLAG/protein A beads overnight at 4 °C; endogenous 14-3-3 detected with anti-pan 14-3-3 by Western blot; also after 1 h of 0.1% DMSO or PKD inhibitors CRT0066101 or CID755673 (dose-dependent decrease, not abolished)
[2] = molecular target: T1, endogenous 14-3-3, P62258; assay: co-immunoprecipitation, quantified Western blot; conditions: chain shown with the change; transiently expressed in HEK293 cells; 3 independent experiments; parent: est. 100; read off a plot
T1 chain: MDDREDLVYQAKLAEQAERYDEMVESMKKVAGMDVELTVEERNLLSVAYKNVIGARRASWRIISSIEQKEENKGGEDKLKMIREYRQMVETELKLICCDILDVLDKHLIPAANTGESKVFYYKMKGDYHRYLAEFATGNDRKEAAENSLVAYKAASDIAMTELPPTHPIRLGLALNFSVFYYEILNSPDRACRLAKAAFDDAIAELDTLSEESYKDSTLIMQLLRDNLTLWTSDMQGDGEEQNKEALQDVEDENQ

[3] = molecular target: B1; assay: cryo-EM structure; PEAK3/14-3-3 complex co-purified from Expi293F (FLAG affinity, SEC), 7 uM, 0.1% n-Octyl-β-D-glucoside; 169,563 particles, C1, 3.1 Å; conditions: both partners purified
[4] = molecular target: the molecule itself; assay: as above

Molecule	percent of parent [2]	further results
endogenous 14-3-3 (from UniProt P62258 1-255) (FLAG-tagged variant transiently expressed in HEK293)	–	reduction in 14-3-3 association relative to WT PEAK3 [1]: 75%
FLAG-tagged WT PEAK3, Q6ZS72 S69A (protein) MSSPEPPTEPPEPDNPTWSTQPTYSNLGQIRAHLLPSKACRLRTPGSLSTNPEPLPPPLPKKILTRTQALPTRRTLHPSSIQVQPPRRPFLGSHSVDKSQAAVGPACLPAELTFGPADAPLGLSLRDLHSPEAVHTALAARQLQGLRTIYARLRARLMGGHPGPCHPGHSFRLLDSSPCAESGDALYYRVVRAHEDAWHILVAKVPKPGADVPHPWGLELQASLSPHFNLQGLCGLVPEGTLPGAPWRGAVALAAEVPERTVAQWLAEACTQPPEEFVWAVALLLLQLSAALKFLEAWGAALVELRPENLLLVAPRGCATTGPPRLLLTDFGRVCLQPPGPPGSPGPHAPQLGSLLRALLSLAAPSTTPLAAGLELLAAQLTRLRPSASRTRGALQALLWGPGPELRGRGAPLGPWLRALGPWLRVRRGLLVLRLAERAAGGEAPSLEDWLCCEYLAEATESSMGQALALLWD	0	–
FLAG-tagged WT PEAK3, Q6ZS72 K293A; W298A (protein) MSSPEPPTEPPEPDNPTWSTQPTYSNLGQIRAHLLPSKACRLRTPGSLSTNPEPLPPPLPKKILTRTQSLPTRRTLHPSSIQVQPPRRPFLGSHSVDKSQAAVGPACLPAELTFGPADAPLGLSLRDLHSPEAVHTALAARQLQGLRTIYARLRARLMGGHPGPCHPGHSFRLLDSSPCAESGDALYYRVVRAHEDAWHILVAKVPKPGADVPHPWGLELQASLSPHFNLQGLCGLVPEGTLPGAPWRGAVALAAEVPERTVAQWLAEACTQPPEEFVWAVALLLLQLSAALAFLEAAGAALVELRPENLLLVAPRGCATTGPPRLLLTDFGRVCLQPPGPPGSPGPHAPQLGSLLRALLSLAAPSTTPLAAGLELLAAQLTRLRPSASRTRGALQALLWGPGPELRGRGAPLGPWLRALGPWLRVRRGLLVLRLAERAAGGEAPSLEDWLCCEYLAEATESSMGQALALLWD	43	–
FLAG-tagged WT PEAK3, Q6ZS72 S225A (protein) MSSPEPPTEPPEPDNPTWSTQPTYSNLGQIRAHLLPSKACRLRTPGSLSTNPEPLPPPLPKKILTRTQSLPTRRTLHPSSIQVQPPRRPFLGSHSVDKSQAAVGPACLPAELTFGPADAPLGLSLRDLHSPEAVHTALAARQLQGLRTIYARLRARLMGGHPGPCHPGHSFRLLDSSPCAESGDALYYRVVRAHEDAWHILVAKVPKPGADVPHPWGLELQASLAPHFNLQGLCGLVPEGTLPGAPWRGAVALAAEVPERTVAQWLAEACTQPPEEFVWAVALLLLQLSAALKFLEAWGAALVELRPENLLLVAPRGCATTGPPRLLLTDFGRVCLQPPGPPGSPGPHAPQLGSLLRALLSLAAPSTTPLAAGLELLAAQLTRLRPSASRTRGALQALLWGPGPELRGRGAPLGPWLRALGPWLRVRRGLLVLRLAERAAGGEAPSLEDWLCCEYLAEATESSMGQALALLWD	82	–
FLAG-tagged WT PEAK3, Q6ZS72 W298A (protein) MSSPEPPTEPPEPDNPTWSTQPTYSNLGQIRAHLLPSKACRLRTPGSLSTNPEPLPPPLPKKILTRTQSLPTRRTLHPSSIQVQPPRRPFLGSHSVDKSQAAVGPACLPAELTFGPADAPLGLSLRDLHSPEAVHTALAARQLQGLRTIYARLRARLMGGHPGPCHPGHSFRLLDSSPCAESGDALYYRVVRAHEDAWHILVAKVPKPGADVPHPWGLELQASLSPHFNLQGLCGLVPEGTLPGAPWRGAVALAAEVPERTVAQWLAEACTQPPEEFVWAVALLLLQLSAALKFLEAAGAALVELRPENLLLVAPRGCATTGPPRLLLTDFGRVCLQPPGPPGSPGPHAPQLGSLLRALLSLAAPSTTPLAAGLELLAAQLTRLRPSASRTRGALQALLWGPGPELRGRGAPLGPWLRALGPWLRVRRGLLVLRLAERAAGGEAPSLEDWLCCEYLAEATESSMGQALALLWD	57	–
FLAG-tagged WT PEAK3, Q6ZS72 K293A (protein) MSSPEPPTEPPEPDNPTWSTQPTYSNLGQIRAHLLPSKACRLRTPGSLSTNPEPLPPPLPKKILTRTQSLPTRRTLHPSSIQVQPPRRPFLGSHSVDKSQAAVGPACLPAELTFGPADAPLGLSLRDLHSPEAVHTALAARQLQGLRTIYARLRARLMGGHPGPCHPGHSFRLLDSSPCAESGDALYYRVVRAHEDAWHILVAKVPKPGADVPHPWGLELQASLSPHFNLQGLCGLVPEGTLPGAPWRGAVALAAEVPERTVAQWLAEACTQPPEEFVWAVALLLLQLSAALAFLEAWGAALVELRPENLLLVAPRGCATTGPPRLLLTDFGRVCLQPPGPPGSPGPHAPQLGSLLRALLSLAAPSTTPLAAGLELLAAQLTRLRPSASRTRGALQALLWGPGPELRGRGAPLGPWLRALGPWLRVRRGLLVLRLAERAAGGEAPSLEDWLCCEYLAEATESSMGQALALLWD	62	–
14-3-3β (natural protein, human (endogenous in Expi293F), UniProt P31946 1-246, looked up, 14-3-3 protein beta, human; residues 3-232 modelled in the cryo-EM structure; also called 14-3-3 beta; β isoform; source: endogenous, Expi293F, co-purified with PEAK3-1xFLAG) MTMDKSELVQKAKLAEQAERYDDMAAAMKAVTEQGHELSNEERNLLSVAYKNVVGARRSSWRVISSIEQKTERNEKKQQMGKEYREKIEAELQDICNDVLELLDKYLIPNATQPESKVFYLKMKGDYFRYLSEVASGDNKQTTVSNSQQAYQEAFEISKKEMQPTHPIRLGLALNFSVFYYEILNSPEKACSLAKTAFDEAIAELDTLNEESYKDSTLIMQLLRDNLTLWTSENQGDEGDAGEGEN	–	binding result [3]: binds
B1	–	stoichiometry N [4]: 2
